Data from patent US20130196915, “AFFINITY HYDROGELS FOR CONTROLLED PROTEIN RELEASE” (published 2013).

Key:
PDGF-BB [1] = biological target: T1, PDGF-BB (Homo sapiens, UniProt P01127 P01127:82-190); test: SPR; PBS with 500 nM scrambled CO during dissociation; details: tags: R&D Systems; amine-coupled to SPR chip; chain copies: 2 (inferred, homodimer)
Description: The molecular interaction between the PDGF-BB and its aptamer was studied using the SPR spectrometry (SR7000DC; Reichert Analytical Instrument; Depew, N.Y.). A carboxyl group-functionalized sensor chip (Reichert Analytical Instrument; Depew, N.Y.) was activated with NHS and EDC for PDGF-BB immobilization. The binding solution of 100 nM of either anti-PDGF-BB aptamers or scrambled aptamers was flowed over the biochip for 5 minutes (30 μL/min) for the analysis of molecular association. Subsequently, the washing solution (PBS, PBS containing 500 nM of CO, or PBS containing 500 nM of S—CO) was introduced over the biochip for another five minutes (30 μL/min) for the analysis of molecular dissociation. The biochip was regenerated by flowing 1 M of NaCl in the channel for two minutes (100 μL/min) followed by the PBS. The dissociation rate constant (koff) was obtained by fitting the binding profiles with the Scrubber 2.0 software as provided by the manufacturer.
Because real applications were involve not only aptamers and COs, but also target proteins, surface plasmon resonance (SPR) was used to directly examine the intermolecular hybridization-mediated protein dissociation (FIG. 11).

PDGF-BB [2] = biological target: T1, PDGF-BB; test: SPR; virtually same as S1; details: tags: R&D Systems; amine-coupled to SPR chip; chain copies: 2 (inferred, homodimer)
Description: (§1) The affinities of the aptamers were measured with surface plasmon resonance (SPR) spectrometry (SR7000DC, Reichert Analytical Instrument, Depew, N.Y.). Carboxyl group-functionalized sensor chips were purchased from the Reichert Analytical Instrument. The chips were initially activated with 0.2 M EDC/0.1 M NHS for 10 min After the activation step, PDGF-BB (20 μg/ml in 25 mM Na₂HPO₄ at pH 8.5) was flowed over the activated sensor chip for protein immobilization. Before the test, the system was equilibrated with the running buffer for 30 min. The running buffer was made of PBS buffer (pH 7.4) containing 0.05% Tween 20. During the test, the aptamer solution was flowed over the sensor chip at a flow rate of 30 μL/minute for 5 minutes. Subsequently, the flowing solution was switched to the running buffer for molecular dissociation. After each test, the sensor chip was regenerated by flowing 1 M NaCl in the channel for 2 minutes and then washed with the running buffer. To determine the dissociation constants, a series of aptamer solutions were prepared with the concentration ranging from 3.13 to 200 nM. The data were processed with the Scrubber 2.0 software (BioLogic Software, Australia). The responses from the reference channel were subtracted from the responses from analyte channel before data analysis to minimize the effects of reflective index changes, nonspecific binding, and instrument drift. The dissociation constant (KD) was determined by fitting the data to a simple biomolecular “1:1 binding” model.

PDGF-BB [3] = biological target: T1, PDGF-BB; test: SPR; PBS, 0.05% Tween 20; details: tags: R&D Systems, amine-coupled to SPR chip, chain copies: 2 (inferred, homodimer)
Description: The molecular interaction between PDGF-BB and the aptamers were studied by SPR spectrometry (SR7000DC, Reichert Analytical Instrument, Depew, N.Y.). PDGF-BB was immobilized onto a sensor chip via amide synthesis. An aqueous solution of NHS (0.0115 g/ml) and EDC (0.038 g/ml) was flowed over the sensor chip at a flow rate of 30 μL/min. After the EDC/NHS-mediated activation of the biochip surface for 10 min, 10 μg/mL of PDGF-BB solution (pH 8.5) was flowed over the chip surface for protein immobilization. Prior to the molecular recognition analysis, the sensor chip was equilibrated for 30 min with a phosphate-buffered saline (PBS) solution containing 0 05% Tween 20. During the binding analysis, 500 nM of binding solution containing either anti-PDGF-BB aptamer or its control was flowed over the biochip at 30 μL/min. The biochip was regenerated with 1 M of NaCl. The binding analysis was repeated twice to confirm the reproducibility. The equilibrium dissociation constant (KD) was calculated with direct curve fitting of the sensorgrams using the software provided by the manufacturer.
Polyacrylamide gel and anti-platelet-derived growth factor-BB (PDGF-BB) aptamer were used as a model system. […] The binding functionality was evaluated with surface plasmon resonance (SPR) analysis, which directly provides information on the binding affinity.

PDGF-BB [4] = biological target: T1, PDGF-BB; test: SPR; COs did not significantly accelerate dissociation; koff only in figure; details: tags: R&D Systems; amine-coupled to SPR chip; chain copies: 2 (inferred, homodimer); three-stem junction
PDGF-BB [5] = biological target: T1, PDGF-BB; test: SPR; PBS pH 7.4, 0.05% Tween 20; equilibrium analysis; details: tags: R&D Systems; amine-coupled to SPR chip; chain copies: 2 (inferred, homodimer)
Description: as §1
The interaction of a molecular pair was determined by not only molecular association but also molecular dissociation. The dissociation rate constant divided by the association rate constant is defined as the equilibrium dissociation constant (KD). Thus, a series of aptamer solutions were prepared and the aptamer-protein interactions were characterized by calculating the dissociation constants (FIG. 19). The concentration-dependent responses were processed to calculate KD using an equilibrium analysis. […]

PDGF-BB [6] = biological target: T1, PDGF-BB; test: SPR; reference for normalized response; PBS pH 7.4, 0.05% Tween 20; details: tags: R&D Systems; amine-coupled to SPR chip; chain copies: 2 (inferred, homodimer); three-stem junction with 10-nt 5' tail
Description: The affinities of the aptamers were measured with surface plasmon resonance (SPR) spectrometry (SR7000DC, Reichert Analytical Instrument, Depew, N.Y.). Carboxyl group-functionalized sensor chips were purchased from the Reichert Analytical Instrument. The chips were initially activated with 0.2 M EDC/0.1 M NHS for 10 min After the activation step, PDGF-BB (20 μg/ml in 25 mM Na₂HPO₄ at pH 8.5) was flowed over the activated sensor chip for protein immobilization. Before the test, the system was equilibrated with the running buffer for 30 min. The running buffer was made of PBS buffer (pH 7.4) containing 0.05% Tween 20. During the test, the aptamer solution was flowed over the sensor chip at a flow rate of 30 μL/minute for 5 minutes. Subsequently, the flowing solution was switched to the running buffer for molecular dissociation. After each test, the sensor chip was regenerated by flowing 1 M NaCl in the channel for 2 minutes and then washed with the running buffer. To determine the dissociation constants, a series of aptamer solutions were prepared with the concentration ranging from 3.13 to 200 nM. The data were processed with the Scrubber 2.0 software (BioLogic Software, Australia). […] The dissociation constant (KD) was determined by fitting the data to a simple biomolecular “1:1 binding” model.

T1 sequence (P01127 82-190, one chain of several): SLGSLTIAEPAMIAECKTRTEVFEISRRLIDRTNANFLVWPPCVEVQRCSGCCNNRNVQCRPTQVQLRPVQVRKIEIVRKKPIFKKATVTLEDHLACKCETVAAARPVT

B1: 61-nt anti-PDGF-BB aptamer (ssDNA)
DNA: AAAAAAAAAAACAGGCTACGGCACGTAGAGCATCACCATGATCCTGTGACTTGAGCAAAAT
modifications: 5'-NH2
In the case of B1, the koff (PDGF-BB [1]) is reported as 0.00065 s⁻¹.

B2: S6 (ssDNA)
DNA: TCGCACATGCACAGGCTACGGCACGTAGAGCATCACCATGATCCTG
B2: binds (PDGF-BB [2]).

B3: S10 (ssDNA)
DNA: CATGAGCCCTACAGGCTACGGCACGTAGAGCATCACCATGATCCTG
B3: binds (PDGF-BB [2]).

B4: S3 (ssDNA)
DNA: CCACGGTCTAACAGGCTACGGCACGTAGAGCATCACCATGATCCTG
B4: binds (PDGF-BB [2]).

B5: control (lower-affinity) aptamer (ssDNA)
DNA: GCGATACTCCACAGCTGACGGCACGGTAAGCATCACCATGATGTCC
modifications: 5'-Acrydite
With B5 the Kd (PDGF-BB [3]) was 220 nM.

B6: S9 (ssDNA)
DNA: GCAACTGCTCACAGGCTACGGCACGTAGAGCATCACCATGATCCTG
B6: binds (PDGF-BB [2]).

B7: 36-nt truncated aptamer (ssDNA)
DNA: ACAGGCTACGGCACGTAGAGCATCACCATGATCCTG
B7: binds (PDGF-BB [4]).

B8: S2 (ssDNA)
DNA: CAATTCCGCGACAGGCTACGGCACGTAGAGCATCACCATGATCCTG
B8: binds (PDGF-BB [2]).

B9: anti-PDGF-BB aptamer (higher affinity, 46-nt) (ssDNA)
DNA: GCGATACTCCACAGGCTACGGCACGTAGAGCATCACCATGATCCTG
modifications: 5'-Acrydite
In the case of B9, the Kd (PDGF-BB [3]; three-stem junction with 10-nt 5' tail) is reported as 25 nM.

B10: M3 (ssDNA)
DNA: GCGATACTCCACAGGCTACGGCACGTAGAGCATCACCATGATCTCA
B10 was tested, and the Kd (PDGF-BB [5]) was 354 nM.

B11: S1 (ssDNA)
DNA: GCGATACTCCACAGGCTACGGCACGTAGAGCATCACCATGATCCTG
B11: binds (PDGF-BB [6]).

B12: M2 (ssDNA)
DNA: GCGATACTCCACAGGCTACGGCACGTAGAGCATCACCATGATCCCA
In the case of B12, the Kd (PDGF-BB [5]) is reported as 109 nM.

B13: M1 (ssDNA)
DNA: GCGATACTCCACAGGCTACGGCACGTAGAGCATCACCATGATCCTA
B13 gave a Kd (PDGF-BB [5]) of 27.6 nM.

B14: S4 (ssDNA)
DNA: CGCCATTCAGACAGGCTACGGCACGTAGAGCATCACCATGATCCTG
B14: binds (PDGF-BB [2]).
